Experimental data published in the supplement of paper PMC9170038.

System: MS2 coat protein
Assay: apparent KD of MS2 coat protein; designed switch direction (-1 OFF switch, 1 ON switch): 1; higher = weaker reporter binding
Outline: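 Designed RNA switches were transcribed on Illumina chips by stalled E. coli RNA polymerase and titrated with SNAP-549-labelled MS2 coat protein from 0.7 or 1.5 nM, doubling to 3 µM. Step length ran from 0.8–1.5 h at the lowest concentration to 10–20 min at the highest. The apparent KD is the median over clusters for each design, from curve-fitted normalised cluster fluorescence.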

[1] = Eterna round: R95, input ligand: FMN 200 uM
[2] = Eterna round: R95, input ligand: microRNA oligo, concentration not stated
[3] = Eterna round: R95, input ligand: none
[4] = input ligand: microRNA oligo, concentration not stated

Row | Sequence | apparent KD of MS2 coat protein [1] [nM] | apparent KD of MS2 coat protein [2] [nM] | apparent KD of MS2 coat protein [3] [nM] | apparent KD of MS2 coat protein (input ligand: FMN 200 uM) [nM] | apparent KD of MS2 coat protein [4] [nM] | apparent KD of MS2 coat protein (input ligand: none) [nM]
1 | UAAACUAGUUAUAGUGUAAUGCAUAUUAUACAUGAGGAUCACCCAUGUGAUGGUUGGUAUGAUUUUGUUCGUCUUAA [JR_SHM208A_Sub079] (puzzle: Sensor for hsa-mir-208a) | 148 | 61.9 | 232 |  |  | 
2 | UUGCUUCUCGUAGGAUAUGUAGGAUAUUCCUACAUGAGGAUCACCCAUGUUCGCAUGGAAGAAGGACAGAAGGACGAUCACCCU [pwkr ssNG2 2FMN + 1F5.10] (Eterna round: R96, puzzle: Same State NG 2) |  |  |  | 330 | 234 | 271
3 | GACGAGGUGGGAGGAUAUAGCCCGUGGACUGUACCCGAACAUGAGGAUCACCCAUGUCGAGAAACCUAGAAGGCCUACAACGUA [Eternabot solution 11] (Eterna round: R96, puzzle: Same State NG 2) |  |  |  | 16.8 | 10.8 | 38.4
4 | GUAGCAUACCGAGGAUAUUCAUAUUACAUGAGGAUCACCCAUGUUAUAGGCCGAUUACGGCCUUGGGAGAAGGCGGAAUGCUAC [Xeonanis - 20 Mod24] (Eterna round: R96, puzzle: Same State NG 2) |  |  |  | 17.4 | 38.1 | 37.6
5 | GCUCGCGGCACAGGAUAUGGGUGCCUGUACAUGAGGAUCACCCAUGUUAAGGGACGGAUUACGAACCAGAAGGGUGUGGCAAGC [Reonisma] (Eterna round: R96, puzzle: Same State NG 2) |  |  |  | 95.5 | 294 | 1060
6 | AUUAAACAUGAGGAUCACCCAUGUCAACAAAGUCGAGGAUAUGGGCAAAUAAAAUAAGAACCAGAAGGCGAAUAAU [salish99_ss1_r3_048] (Eterna round: R96, puzzle: Same State 1) |  |  |  |  | 193 | 
7 | UGAAUAGUUACAGGAUAUGAGUUGUAAAUUGGGUCAGAAGGGUGGGUGUUCUGCGCGGUGUGUUACAUGAGGAUCACCCAUGUU [SameState NG1 #29] (Eterna round: R96, puzzle: Same State NG 1) |  |  |  | 504 | 182 | 377
8 | GUGCAAAUCAUAGGAUAUGGGCGGGAAUGCCGUCCAGAAGGAUGAACAUGAGGAUCACCCAUGUCCAGCCGCAAAUACGCGGCC [Sodirien] (Eterna round: R96, puzzle: Same State NG 1) |  |  |  | 93.8 | 95.1 | 192
9 | AGGCUCAGACGAGGAUAUACGUGGUCACAUGAGGAUCACCCAUGUCUCGAGCUUCGGCUCGAGGCGUAGAAGGUGUCUGAGCCA [SSNG2/6-C1] (Eterna round: R96, puzzle: Same State NG 2) |  |  |  | 195 | 406 | 609
10 | UCUUGGUUUUUGCUCGUUUUUUGUGUUGAACAUGAGGAUCACCCAUGUAUUGUACGGUCCAAUUUAAUAAUGGUCCA [JMF 37] (puzzle: Sensor for hsa-mir-208a) | 28.9 | 15.7 | 26.7 |  |  | 
11 | CAGCGCUGUCGAGAGGAUAUGCGGUGAUGGACAUGAGGAUCACCCAUGUAAGCGAUAGCAUUACGGCAGAAGGCUCUGCAGCUGC [Riaranzaes] (Eterna round: R96, puzzle: Same State 2) |  |  |  |  | 17.2 | 
12 | AGGCUCGUGCUAGGAUAUCUAGGAUAUGGACGAGGAUUACCCGAGCAGCAUUAGCGCACCAGAGGAGAGAAGGAGCGACAUGCG [pwkr ssNG2 2F5 2FMN.11] (Eterna round: R96, puzzle: Same State NG 2) |  |  |  | 5.78 | 4.91 | 16
13 | UGUACCUUCACAGGAUAUCAUGCGAAAAUUGCGUGAGAAGGGUGAAUACUGUGUUAAUAAAAGCACAUGAGGAUCACCCAUGUA [SameState NG1 #57] (Eterna round: R96, puzzle: Same State NG 1) |  |  |  | 392 | 12.7 | 43.4
